Measurements as given in patent US20200010570A1.

Target: C1q (Fitzgerald, Cat. No. 32R-AC049) (UniProt P02745)
Experiment: ForteBio, biotinylated antibody on SA chip, C1q from 200 nM

C1q (Fitzgerald, Cat. No. 32R-AC049), sequence (P02745 23-245 limits assumed, chain 1 of 3): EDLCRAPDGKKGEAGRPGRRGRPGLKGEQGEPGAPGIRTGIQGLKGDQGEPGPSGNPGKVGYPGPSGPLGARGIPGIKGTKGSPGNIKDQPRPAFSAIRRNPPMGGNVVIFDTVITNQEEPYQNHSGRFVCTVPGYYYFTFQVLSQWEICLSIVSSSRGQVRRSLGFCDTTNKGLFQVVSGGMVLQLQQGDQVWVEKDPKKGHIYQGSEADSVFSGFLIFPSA
C1q (Fitzgerald, Cat. No. 32R-AC049), sequence (P02746 28-253 limits assumed, chain 2 of 3, further chain): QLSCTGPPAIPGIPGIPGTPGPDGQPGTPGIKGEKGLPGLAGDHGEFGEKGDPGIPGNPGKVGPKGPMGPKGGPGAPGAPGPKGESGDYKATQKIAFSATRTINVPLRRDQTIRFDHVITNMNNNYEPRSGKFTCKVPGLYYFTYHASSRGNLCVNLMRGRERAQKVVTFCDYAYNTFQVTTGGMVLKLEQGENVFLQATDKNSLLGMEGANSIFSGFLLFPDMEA
C1q (Fitzgerald, Cat. No. 32R-AC049), sequence (P02747 29-245 limits assumed, chain 3 of 3, further chain): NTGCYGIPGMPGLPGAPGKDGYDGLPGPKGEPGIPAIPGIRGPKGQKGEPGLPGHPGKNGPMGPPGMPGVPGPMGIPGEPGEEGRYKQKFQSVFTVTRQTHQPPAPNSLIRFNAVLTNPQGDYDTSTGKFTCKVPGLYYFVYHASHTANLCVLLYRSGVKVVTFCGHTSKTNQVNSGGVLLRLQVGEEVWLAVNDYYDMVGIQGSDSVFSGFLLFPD

Kd: 1.3 nM | koff: 0.00176 s⁻¹ | kon: 1.36e+06 M⁻¹ s⁻¹
Substance: Tecentriq® (Atezolizumab, purchased from Roche) (antibody)
